# Patent publication JP2015180626A (dated 2015)
# Molecular target: RSV Fタンパク質 (RSV A2ウイルス) (respiratory syncytial virus (RSV) A2, UniProt P03420 26-574)
# Assay: cell-based or functional assay
# Chain of RSV Fタンパク質 (RSV A2ウイルス) (P03420 26-574): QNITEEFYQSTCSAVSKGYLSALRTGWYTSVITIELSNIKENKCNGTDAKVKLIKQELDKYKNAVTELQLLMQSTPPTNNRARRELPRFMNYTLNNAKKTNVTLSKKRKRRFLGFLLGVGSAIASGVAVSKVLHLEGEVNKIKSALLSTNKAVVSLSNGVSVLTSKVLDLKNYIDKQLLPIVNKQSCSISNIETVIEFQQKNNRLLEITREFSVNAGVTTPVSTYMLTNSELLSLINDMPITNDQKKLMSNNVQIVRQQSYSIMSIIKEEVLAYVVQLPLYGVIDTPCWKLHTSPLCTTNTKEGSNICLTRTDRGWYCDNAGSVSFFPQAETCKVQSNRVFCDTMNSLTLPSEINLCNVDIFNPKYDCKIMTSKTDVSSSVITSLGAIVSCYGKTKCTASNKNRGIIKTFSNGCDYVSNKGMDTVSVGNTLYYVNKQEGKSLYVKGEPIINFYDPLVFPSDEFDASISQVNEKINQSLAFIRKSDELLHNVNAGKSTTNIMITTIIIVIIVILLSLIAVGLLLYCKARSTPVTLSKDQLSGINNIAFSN
binder,measurement,value
"AM22 (antibody, V domains shown) VH: QVQLVQSGAEVKKPGATVKVSCKISGHTLIKLSIHWVRQAPGKGLEWMGGYEGEVDEIFYAQKFQHRLTVIADTATDTVYMELGRLTSDDTAVYFCGTLGVTVTEAGLGIDDYWGQGTLVTVSS VL: EIVLTQSPGTLSLSPGERATLSCRASQIVSRNHLAWYQQKPGQAPRLLIFGASSRATGIPVRFSGSGSGTDFTLTINGLAPEDFAVYYCLSSDSSIFTFGPGTKVDFK",RSV-A2ウイルスに対する中央値半分最大阻害濃度(IC 50 ) (neutralisation of RSV A2 on HEp2 cells),1.15 ng/mL
